The subject of this data set is Escherichia coli TOP10. Put plainly: shrunken log2 fold change of peptide-encoding DNA abundance (4.5 h post-induction vs induction); higher = less antimicrobial activity (less host growth inhibition). The following applies: time post-induction: 4.5 h; library: site-saturation at positions 5, 18, 19, 20.
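Also: peptides expressed intracellularly from a pBAD plasmid library in pooled LB shake-flask culture, induced with 0.3% L-arabinose, DNA abundance read by NGS, three biological replicates, DESeq2 with apeglm shrinkage.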

For RRIRYRPPRLPRPRPRPQAIPRP, the “shrunken log2 fold change” value is -0.066.

RRIRSRPPRLPRPRPRPDDMPRP: the “shrunken log2 fold change” value was found to be 0.0939.

For the sequence RRIRFRPPRLPRPRPRPGGNPRP, the “shrunken log2 fold change” value turned out to be 0.149.

Consider RRIRPRPPRLPRPRPRPQVMPRP, for which the “shrunken log2 fold change” value was -0.286.

With RRIRCRPPRLPRPRPRPEAEPRP, the “shrunken log2 fold change” value amounted to 0.656.

As to RRIRKRPPRLPRPRPRPDDSPRP, the “shrunken log2 fold change” value was -0.0813.

Take RRIRQRPPRLPRPRPRPQEVPRP: the “shrunken log2 fold change” value was -0.171.

For RRIRSRPPRLPRPRPRPFCYPRP, the “shrunken log2 fold change” value was -0.528.

For RRIRIRPPRLPRPRPRPWHRPRP, the “shrunken log2 fold change” value is 0.0544.

Regarding RRIRKRPPRLPRPRPRPNGGPRP, the “shrunken log2 fold change” value came out at 0.0116.

With RRIRMRPPRLPRPRPRPDAKPRP, the “shrunken log2 fold change” value is 0.937.

For the sequence RRIRIRPPRLPRPRPRPQPVPRP, the “shrunken log2 fold change” value was -0.169.

As to RRIRSRPPRLPRPRPRPGAMPRP, the “shrunken log2 fold change” value was 0.724.

Turning to RRIRARPPRLPRPRPRPTCGPRP, the “shrunken log2 fold change” value is 0.512.

As for RRIRERPPRLPRPRPRPMFYPRP, the “shrunken log2 fold change” value is -0.0786.

Take RRIRTRPPRLPRPRPRPICCPRP: the “shrunken log2 fold change” value turned out to be 0.0718.

Consider RRIRHRPPRLPRPRPRPAFPPRP, for which the “shrunken log2 fold change” value was 0.46.

Take RRIRWRPPRLPRPRPRPQRHPRP: the “shrunken log2 fold change” value came to 0.163.

RRIRVRPPRLPRPRPRPRQEPRP: the “shrunken log2 fold change” value was -0.0401.

As for RRIRCRPPRLPRPRPRPPRRPRP, the “shrunken log2 fold change” value was 0.909.

For the sequence RRIRKRPPRLPRPRPRPYMKPRP, the “shrunken log2 fold change” value is -0.134.

In the case of RRIRNRPPRLPRPRPRPQCTPRP, the “shrunken log2 fold change” value is -0.123.

In the case of RRIRCRPPRLPRPRPRPKVFPRP, the “shrunken log2 fold change” value came out at 0.0792.

Turning to RRIRGRPPRLPRPRPRPRWRPRP, the “shrunken log2 fold change” value stood at 0.973.

On to RRIRWRPPRLPRPRPRPPWLPRP, for which the “shrunken log2 fold change” value came to 0.526.

RRIRRRPPRLPRPRPRPDKDPRP: the “shrunken log2 fold change” value amounted to 0.00839.

With RRIRCRPPRLPRPRPRPTVTPRP, the “shrunken log2 fold change” value was -0.208.

For RRIRMRPPRLPRPRPRPFYGPRP, the “shrunken log2 fold change” value was determined as 0.0715.

As to RRIRYRPPRLPRPRPRPNRWPRP, the “shrunken log2 fold change” value stood at 0.135.

For the sequence RRIRDRPPRLPRPRPRPERRPRP, the “shrunken log2 fold change” value was found to be 0.0137.

For the sequence RRIRWRPPRLPRPRPRPTSTPRP, the “shrunken log2 fold change” value amounted to 0.0842.

Consider RRIRERPPRLPRPRPRPGWQPRP, for which the “shrunken log2 fold change” value worked out at 0.0683.

As for RRIRYRPPRLPRPRPRPMYIPRP, the “shrunken log2 fold change” value was -0.0194.

In the case of RRIRPRPPRLPRPRPRPILYPRP, the “shrunken log2 fold change” value is -0.299.

On to RRIRRRPPRLPRPRPRPYRHPRP, for which the “shrunken log2 fold change” value is -0.265.

For RRIRWRPPRLPRPRPRPALFPRP, the “shrunken log2 fold change” value was found to be 0.496.

Take RRIRNRPPRLPRPRPRPLWKPRP: the “shrunken log2 fold change” value is -0.422.

Consider RRIRLRPPRLPRPRPRPQVRPRP, for which the “shrunken log2 fold change” value came out at 0.0635.

For RRIRPRPPRLPRPRPRPDDQPRP, the “shrunken log2 fold change” value was 0.0917.

On to RRIRQRPPRLPRPRPRPEERPRP, for which the “shrunken log2 fold change” value was found to be 0.104.

For RRIRYRPPRLPRPRPRPANQPRP, the “shrunken log2 fold change” value is -0.131.

Take RRIRQRPPRLPRPRPRPLKVPRP: the “shrunken log2 fold change” value is -0.102.

Turning to RRIRARPPRLPRPRPRPVASPRP, the “shrunken log2 fold change” value came out at 0.595.

In the case of RRIRQRPPRLPRPRPRPMNLPRP, the “shrunken log2 fold change” value is -0.169.

For the sequence RRIRCRPPRLPRPRPRPGKEPRP, the “shrunken log2 fold change” value was -0.0657.

Take RRIRHRPPRLPRPRPRPEMKPRP: the “shrunken log2 fold change” value was -0.0143.

For the sequence RRIRKRPPRLPRPRPRPAALPRP, the “shrunken log2 fold change” value came to 0.831.

Regarding RRIRWRPPRLPRPRPRPTMYPRP, the “shrunken log2 fold change” value was found to be 0.00431.

For RRIRCRPPRLPRPRPRPILVPRP, the “shrunken log2 fold change” value was -0.0457.

RRIRPRPPRLPRPRPRPFMSPRP: the “shrunken log2 fold change” value was -0.384.

(Values after the supplement of paper PMC9112550, “Optimization of the antimicrobial peptide Bac7 by deep mutational scanning” (BMC Biology, 2022).)
